Assay: soluble on expression in E. coli; label from the status in PepcDB or PDB records

Sequence	soluble on expression in E. coli
MKGLFVTIEGPEGSGKTTLIQSLLPYFEQKEQKVMATREPGGIAISEDIRTILHKQEYTMMEARTEALLYAAARRQHLVEKVMPALNEDYLVLCDRFIDSSLAYQGYARGLGMDKVFEINRFATEDCMPSLTIYLDIEPEVGLARIAKDAGREVNRLDMEDISFHKRVREGYLQVVERFSDRIVLVNADQPMEKLIEEVIQVIEDKLL	soluble
KSAIVHLINYQDDAELATRALPELTKLLNDEDPVVVTKAAMIVNQLSKKEASRRALMGSPQLVAAVVRTMQNTSDLDTARCTTSILHNLSHHREGLLAIFKSGGIPALVRMLSSPVESVLFYAITTLHNLLLYQEGAKMAVRLADGLQKMVPLLNKNNPKFLAITTDCLQLLAYGNQESKLIILANGGPQALVQIMRNYSYEKLLWTTSRVLKVLSVCPSNKPAIVEAGGMQALGKHLTSNSPRLVQNCLWTLRNLSDVATKQEGLESVLKILVNQLSVDDVNVLTCATGTLSNLTCNNSKNKTLVTQNSGVEALIHAILRAGDKDDITEPAVCALRHLTSRHPEAEMAQNSVRLNYGIPAIVKLLNQPNQWPLVKATIGLIRNLALCPANHAPLQEAAVIPRLVQLLVKAHQDAQRHVAAGTQQPYTDGVRMEEIVEGCTGALHILARDPMNRMEIFRLNTIPLFVQLLYSSVENIQRVAAGVLCELAQDKEAADAIDAEGASAPLMELLHSRNEGTATYAAAVLFRISEDKNPDYRKRVSVELTNSLFKHD	soluble
MGSDKIHHHHHHMIMATLKDIAKLAKVSQATVSRVLNKDETLSVSQKTKHRILMVADELGYQKHLKTTNSPQVRQKIAIVQWYSQQEELNDLYYYSIRIGIEKRAQELDYDIVRYFDNDISKVSADIVGLIAIGKFSTYQIAELEKLSDKLIFVDSDTLNAGYPCVMTDFDNAVVKVLDYFLDHGLTKIGMIAGEEKTTDGRELLIDQRFRTFRNYAYEQDIYNPNYIFIGDFSAQTGYHLMKKAIKELKENLPQAFFIANDSLAIGALRALQEANIPVPNRVSLISFNDTALTKQVFPALSSITVFTKEMGRTAVDILNRQILNPDIIPSMTRLTTQLTLRESSI	not soluble
MAGDPMYSLFQEGRKMKNTAFLITKNHYPKDYRLKKSPDSDSAMGVAKRILAEVMIFRRVPETISLCGTGCQKCASPHLPKIISAVNKNEPVTFILPAFPGKSPNPEKVLGHLPDHAERLSLNFLGTLCQRIKNFYTPGIKIILCSDGRVFSDVVGMNESDVTAYQLELDRLIKEMSLADLSTFNLDYFYKDLHFVQMREELMKSYGQSLDFLKQKIRNGAKPSASPDEQEANRMYSGITRFLFEDAMHAGQTKSRTAIQKESRFKAYEVIRRSNAWSALIAERFPKAVRLSIHPQTCGSKKLGIRLIGNESWMTPWHGVAVESNKGYVLLRRSEAEALGAKLICSSDGRHSHYQLMAEVSYELAAALEHHHHHH	soluble
TIPKWWKEAVFYQVYPRSFKDTNGDGIGDINGIIEKLDYLKALGIDAIWINPHYDSPNTDNGYDIRDYRKIMKEYGTMEDFDRLISEMKKRNMRLMIDVVINHTSDQNEWFVKSKSSKDNPYRGYYFWKDAKEGQAPNNYPSFFGGSAWQKDEKTNQYYLHYFAKQQPDLNWDNPKVRQDLYAMLRFWLDKGVSGLRFDTVATYSKIPDFPNLTQQQLKNFAAEYTKGPNIHRYVNEMNKEVLSHYDIATAGEIFGVPLDQSIKFFDRRRDELNIAFTFDLIRLDRDSDQRWRRKDWKLSQFRQIIDNVDRTAGEYGWNAFFLDNHDNPRAVSHFGDDRPQWREPSAKALATLTLTQRATPFIYQGSELGMTNYPFKAIDEFDDIEVKGFWHDYVETGKVKADEFLQNVRLTSRDNSRTPFQWDGSKNAGFTSGKPWFKVNPNYQEINAVSQVTQPDSVFNYYRQLIKIRHDIPALTYGTYTDLDPANDSVYAYTRSLGAEKYLVVVNFKEQMMRYKLPDNLSIEKVIIDSNSKNVVKKNDSLLELKPWQSGVYKLNQ	soluble
MAKAKTQFVCQNCGTVHNRWAGKCEGCGEWNTIVEEDPMGGIGSGPGKVPKKGRPVTLTSLSGEIEEAPRIPTGISELDRATGGGFVRGSAVLIGGDPGIGKSTLLMQAAAALSRRGHRVIYVSGEEAVAQVRLRAQRLGSADTDVLLAAETNVEDILATVSEGKRPDLIIIDSIQTLWSDTADSAPGTVTQVRTGVQAMIRFAKQTGATMVLVGHVTKEGQIAGPRVVEHMVDAVLYFEGDRGHHYRILRTVKNRFGPTDEIGVFEMSDGGLREVSNPSELFLGERNEKSPGAAVFAGIEGTRPVLVEVQALVAATSLGTPRRAVVGWDSSRLAMILAVLEAHCGVKLGQHDVYLNVAGGYRISEPAADMAIASALVSSLAGLALPADCVYFGEISLSGAVRPVAHTVQRLKEAEKLGFSAALLPSGSAELPKAGKGRWTEIESLPDLVAHIAGSGNRFKQVEDDEY	not soluble
